Experiment [1] deals with T1, murine Jagged1 on 293T cells (mouse, UniProt Q9QXX0).
T1 chain: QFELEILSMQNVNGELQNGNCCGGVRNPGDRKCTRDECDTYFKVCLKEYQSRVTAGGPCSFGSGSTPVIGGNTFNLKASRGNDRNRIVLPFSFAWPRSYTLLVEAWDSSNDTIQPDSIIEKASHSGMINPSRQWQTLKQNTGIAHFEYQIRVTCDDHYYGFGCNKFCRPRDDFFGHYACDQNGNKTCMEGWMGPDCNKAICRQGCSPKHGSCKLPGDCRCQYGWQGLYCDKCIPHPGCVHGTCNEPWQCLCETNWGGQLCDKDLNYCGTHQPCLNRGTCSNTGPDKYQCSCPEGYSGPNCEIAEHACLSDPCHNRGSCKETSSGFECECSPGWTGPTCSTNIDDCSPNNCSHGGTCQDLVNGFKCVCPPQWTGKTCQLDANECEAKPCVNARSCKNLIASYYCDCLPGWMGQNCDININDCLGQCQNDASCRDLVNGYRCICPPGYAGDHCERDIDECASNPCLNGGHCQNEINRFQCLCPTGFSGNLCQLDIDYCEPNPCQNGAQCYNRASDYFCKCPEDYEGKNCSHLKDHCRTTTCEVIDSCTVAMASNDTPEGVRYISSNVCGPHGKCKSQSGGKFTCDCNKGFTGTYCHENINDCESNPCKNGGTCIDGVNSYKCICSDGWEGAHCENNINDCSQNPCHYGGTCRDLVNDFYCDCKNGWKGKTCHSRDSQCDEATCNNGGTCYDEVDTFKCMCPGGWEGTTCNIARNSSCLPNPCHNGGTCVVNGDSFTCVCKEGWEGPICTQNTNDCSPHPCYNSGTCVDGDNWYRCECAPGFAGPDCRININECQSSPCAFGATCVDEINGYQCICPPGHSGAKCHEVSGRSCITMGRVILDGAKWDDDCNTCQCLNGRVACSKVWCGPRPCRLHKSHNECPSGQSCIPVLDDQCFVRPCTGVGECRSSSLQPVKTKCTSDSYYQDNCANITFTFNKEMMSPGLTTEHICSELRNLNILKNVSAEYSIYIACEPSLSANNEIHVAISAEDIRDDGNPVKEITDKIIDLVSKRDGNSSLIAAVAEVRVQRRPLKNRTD
Nature of the experiment: FACS. For orientation: In flow cytometry, cells or beads pass a laser one at a time.

Another experiment deals with rat Jagged1-Fc (rat, UniProt Q63722). Kind of experiment: ELISA.
Another experiment deals with murine DLL1-His (mouse, UniProt Q61483). Nature of the experiment: ELISA. For orientation: An ELISA detects its analyte on a solid surface through an enzyme-linked reagent.
A further experiment addresses murine Jagged2-Fc (mouse, UniProt Q9QYE5). Kind of experiment: ELISA.
The target of a further experiment is human Jagged1-His (human, UniProt P78504). Kind of experiment: ELISA.
In experiment [2] the target is rat Jagged1 on 293T cells (rat, UniProt Q63722). Kind of experiment: FACS.
In experiment [3] the target is T2, human Jagged1 on 293/293T cells (human, UniProt P78504). Nature of the experiment: FACS.
In experiment [4] the target is T2, human Jagged1 on 293/293T cells. Nature of the experiment: KinExA, on-cell. On the technique in general: Kinetic exclusion samples the free partner from a solution-phase mixture.
The next experiment concerns the target T3, murine DLL4-His (mouse, UniProt Q9JI71).
T3 chain: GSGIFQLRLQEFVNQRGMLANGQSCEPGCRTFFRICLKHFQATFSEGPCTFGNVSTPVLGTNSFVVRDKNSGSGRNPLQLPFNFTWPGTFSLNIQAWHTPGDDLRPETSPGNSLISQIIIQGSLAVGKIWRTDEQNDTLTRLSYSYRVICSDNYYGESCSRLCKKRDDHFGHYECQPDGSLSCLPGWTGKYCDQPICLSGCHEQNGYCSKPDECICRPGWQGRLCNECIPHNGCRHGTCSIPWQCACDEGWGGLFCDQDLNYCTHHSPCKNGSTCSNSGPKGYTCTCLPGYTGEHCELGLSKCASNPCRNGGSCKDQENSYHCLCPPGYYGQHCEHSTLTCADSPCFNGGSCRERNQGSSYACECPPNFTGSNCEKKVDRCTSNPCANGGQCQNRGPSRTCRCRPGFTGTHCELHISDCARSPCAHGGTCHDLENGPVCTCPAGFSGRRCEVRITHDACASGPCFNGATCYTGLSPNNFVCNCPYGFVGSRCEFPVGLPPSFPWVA
Nature of the experiment: ELISA.

Experiment [5] addresses human Jagged1 ECD-His (Met1-Ser1046) (human, UniProt P78504). Nature of the experiment: BLI.
In the next experiment the target is human DLL4-His (human, UniProt Q9NR61). Nature of the experiment: ELISA.
The next experiment addresses human Jagged2-Fc (human, UniProt Q9Y219). Kind of experiment: ELISA.
The next experiment deals with human Jagged1-Fc (human, UniProt P78504). Kind of experiment: ELISA.

The results in this text go back to patent US11028180.

murine Jagged2-Fc, sequence (Q9QYE5 24-1082): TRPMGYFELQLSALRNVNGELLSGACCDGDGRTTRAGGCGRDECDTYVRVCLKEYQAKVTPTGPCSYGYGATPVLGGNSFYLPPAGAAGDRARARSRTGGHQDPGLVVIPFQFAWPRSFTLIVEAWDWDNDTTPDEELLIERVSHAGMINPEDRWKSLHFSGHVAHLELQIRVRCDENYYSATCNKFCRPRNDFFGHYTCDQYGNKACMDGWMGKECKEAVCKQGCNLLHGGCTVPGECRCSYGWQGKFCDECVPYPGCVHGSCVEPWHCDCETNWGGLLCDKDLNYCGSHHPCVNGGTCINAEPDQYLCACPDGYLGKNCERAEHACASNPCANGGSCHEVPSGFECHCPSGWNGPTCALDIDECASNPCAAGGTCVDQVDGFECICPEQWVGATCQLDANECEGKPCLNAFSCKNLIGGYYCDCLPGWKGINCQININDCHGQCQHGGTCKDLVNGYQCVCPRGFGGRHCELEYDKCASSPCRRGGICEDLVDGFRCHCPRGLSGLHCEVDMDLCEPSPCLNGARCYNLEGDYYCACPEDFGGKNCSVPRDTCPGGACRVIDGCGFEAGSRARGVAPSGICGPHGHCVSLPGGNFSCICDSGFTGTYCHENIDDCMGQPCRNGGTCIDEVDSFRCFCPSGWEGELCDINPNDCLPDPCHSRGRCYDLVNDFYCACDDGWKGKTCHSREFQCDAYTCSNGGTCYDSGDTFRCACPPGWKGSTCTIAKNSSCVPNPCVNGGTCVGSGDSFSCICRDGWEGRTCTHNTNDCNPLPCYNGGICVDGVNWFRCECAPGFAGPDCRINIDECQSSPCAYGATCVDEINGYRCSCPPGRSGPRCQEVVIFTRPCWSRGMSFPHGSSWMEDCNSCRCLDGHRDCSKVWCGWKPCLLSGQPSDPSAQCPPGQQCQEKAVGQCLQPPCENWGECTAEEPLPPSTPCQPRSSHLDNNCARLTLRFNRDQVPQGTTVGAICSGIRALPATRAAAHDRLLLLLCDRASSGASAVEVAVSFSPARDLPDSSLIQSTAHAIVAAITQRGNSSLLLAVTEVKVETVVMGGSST
human Jagged1 ECD-His (Met1-Ser1046), sequence (P78504 1-1046): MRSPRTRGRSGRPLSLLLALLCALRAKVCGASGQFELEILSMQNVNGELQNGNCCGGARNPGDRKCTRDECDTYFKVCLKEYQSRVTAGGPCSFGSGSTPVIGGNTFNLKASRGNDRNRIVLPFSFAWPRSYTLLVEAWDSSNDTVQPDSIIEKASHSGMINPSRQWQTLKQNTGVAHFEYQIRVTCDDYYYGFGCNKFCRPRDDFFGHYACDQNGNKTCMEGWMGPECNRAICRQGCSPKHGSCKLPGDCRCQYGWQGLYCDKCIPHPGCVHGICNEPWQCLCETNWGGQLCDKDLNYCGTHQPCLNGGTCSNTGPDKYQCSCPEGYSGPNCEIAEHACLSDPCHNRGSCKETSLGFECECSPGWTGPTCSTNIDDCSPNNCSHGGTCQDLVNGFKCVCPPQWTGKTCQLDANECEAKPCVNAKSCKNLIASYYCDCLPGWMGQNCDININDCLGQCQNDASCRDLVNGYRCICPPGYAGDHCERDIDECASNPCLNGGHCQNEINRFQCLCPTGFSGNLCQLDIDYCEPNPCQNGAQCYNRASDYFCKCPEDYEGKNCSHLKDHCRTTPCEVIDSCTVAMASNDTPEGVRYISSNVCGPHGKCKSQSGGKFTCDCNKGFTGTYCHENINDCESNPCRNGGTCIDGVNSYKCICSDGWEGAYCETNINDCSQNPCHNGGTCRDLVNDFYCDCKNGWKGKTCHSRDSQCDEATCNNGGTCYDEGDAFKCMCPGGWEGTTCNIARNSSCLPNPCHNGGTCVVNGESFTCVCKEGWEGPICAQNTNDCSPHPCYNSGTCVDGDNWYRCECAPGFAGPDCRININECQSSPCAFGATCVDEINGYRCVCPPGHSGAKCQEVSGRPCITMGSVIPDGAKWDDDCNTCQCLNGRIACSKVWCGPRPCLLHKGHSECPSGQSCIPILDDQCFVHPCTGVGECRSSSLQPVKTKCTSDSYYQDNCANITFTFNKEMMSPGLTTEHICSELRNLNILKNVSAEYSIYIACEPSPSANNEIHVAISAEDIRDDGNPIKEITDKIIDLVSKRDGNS
human Jagged2-Fc, sequence (Q9Y219 24-1080): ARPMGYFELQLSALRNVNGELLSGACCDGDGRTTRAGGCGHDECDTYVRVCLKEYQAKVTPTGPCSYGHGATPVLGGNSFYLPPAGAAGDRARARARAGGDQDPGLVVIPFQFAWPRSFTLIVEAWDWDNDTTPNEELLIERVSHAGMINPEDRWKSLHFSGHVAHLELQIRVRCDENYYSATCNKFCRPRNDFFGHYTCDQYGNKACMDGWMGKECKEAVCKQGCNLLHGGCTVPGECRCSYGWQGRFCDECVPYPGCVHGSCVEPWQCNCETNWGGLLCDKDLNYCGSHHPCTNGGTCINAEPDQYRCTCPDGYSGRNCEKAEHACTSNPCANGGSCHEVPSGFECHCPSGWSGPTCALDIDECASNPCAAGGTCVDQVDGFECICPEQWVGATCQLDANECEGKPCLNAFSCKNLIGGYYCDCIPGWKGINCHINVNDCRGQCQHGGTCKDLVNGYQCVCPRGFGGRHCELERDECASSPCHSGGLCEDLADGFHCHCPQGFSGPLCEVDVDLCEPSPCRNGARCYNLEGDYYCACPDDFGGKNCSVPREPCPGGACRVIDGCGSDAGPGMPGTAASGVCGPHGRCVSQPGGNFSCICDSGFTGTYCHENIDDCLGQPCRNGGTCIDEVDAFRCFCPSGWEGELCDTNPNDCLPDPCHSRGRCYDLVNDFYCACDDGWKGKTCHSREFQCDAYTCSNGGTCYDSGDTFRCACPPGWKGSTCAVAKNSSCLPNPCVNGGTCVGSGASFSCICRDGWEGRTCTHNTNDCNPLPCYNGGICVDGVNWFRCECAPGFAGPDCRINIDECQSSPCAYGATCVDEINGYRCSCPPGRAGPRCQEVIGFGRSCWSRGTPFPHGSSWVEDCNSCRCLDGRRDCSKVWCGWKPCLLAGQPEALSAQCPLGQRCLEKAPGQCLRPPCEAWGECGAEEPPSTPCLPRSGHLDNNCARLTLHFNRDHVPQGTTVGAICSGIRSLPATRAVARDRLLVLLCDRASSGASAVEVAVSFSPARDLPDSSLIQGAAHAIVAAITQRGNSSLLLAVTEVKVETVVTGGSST
human DLL4-His, sequence (Q9NR61 27-529): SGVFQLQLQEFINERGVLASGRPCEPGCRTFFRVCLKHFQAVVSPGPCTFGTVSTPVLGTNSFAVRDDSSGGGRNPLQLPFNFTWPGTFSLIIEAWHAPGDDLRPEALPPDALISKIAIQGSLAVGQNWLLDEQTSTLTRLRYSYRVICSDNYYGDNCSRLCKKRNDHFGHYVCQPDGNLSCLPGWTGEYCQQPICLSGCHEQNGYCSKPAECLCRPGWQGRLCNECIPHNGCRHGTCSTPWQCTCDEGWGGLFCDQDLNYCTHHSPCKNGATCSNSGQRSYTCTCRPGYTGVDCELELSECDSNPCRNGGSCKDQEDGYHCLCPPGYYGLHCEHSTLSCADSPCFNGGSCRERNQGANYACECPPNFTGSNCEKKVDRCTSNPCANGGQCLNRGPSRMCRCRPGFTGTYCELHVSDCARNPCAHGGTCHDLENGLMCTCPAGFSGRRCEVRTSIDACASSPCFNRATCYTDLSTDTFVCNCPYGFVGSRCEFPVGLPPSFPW
murine DLL1-His, sequence (Q61483 18-545): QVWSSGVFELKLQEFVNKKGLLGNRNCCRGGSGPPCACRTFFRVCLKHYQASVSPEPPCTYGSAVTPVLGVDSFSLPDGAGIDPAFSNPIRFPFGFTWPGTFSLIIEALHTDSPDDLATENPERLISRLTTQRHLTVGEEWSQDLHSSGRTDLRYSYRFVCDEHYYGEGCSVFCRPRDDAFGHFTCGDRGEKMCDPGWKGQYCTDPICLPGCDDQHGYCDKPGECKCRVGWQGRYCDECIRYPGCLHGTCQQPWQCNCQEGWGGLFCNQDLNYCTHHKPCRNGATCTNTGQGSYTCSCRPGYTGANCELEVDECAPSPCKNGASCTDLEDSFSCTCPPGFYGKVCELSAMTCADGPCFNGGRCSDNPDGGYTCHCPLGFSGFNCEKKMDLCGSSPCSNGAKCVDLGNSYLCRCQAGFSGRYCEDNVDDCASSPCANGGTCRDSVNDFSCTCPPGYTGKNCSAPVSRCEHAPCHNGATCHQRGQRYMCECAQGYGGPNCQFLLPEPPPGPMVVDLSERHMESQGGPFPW

B1: 15D11.1 (antibody, V domains shown)
VH: QVTLKESGPVLVKPTETLTLTCTVSGFSLSNAEMGVSWIRQPPGKALEWLAHLFSNDEKSYSTSLKSRLTISKDTSKSQVVLTMTDLDPVDTATYYCARSFNWNYDFDYWGQGTLVTVSS
VL: QSALTQPASVSGSPGQSITISCTGTSSAVGGHNFVSWYQQYPGKAPKLMIYEVSNRPSGVSTRFSGSKSGNTASLTISGLQAEDEADYYCSSYTSSSTWVFGGGTRLTVL
B1: the EC50 worked out at 0.36 nM in experiment [1]; 0.51 nM with rat Jagged1-Fc; 0.39 nM with human Jagged1-His; 0.25 nM in experiment [2]; 0.29 nM in [3]; 0.8 nM with human Jagged1-Fc. Also, the binding result in the experiment with murine DLL1-His, in the experiment with murine Jagged2-Fc, with murine DLL4-His, with human DLL4-His and with human Jagged2-Fc was “no binding” in each case. Further, the results for the Kd in experiment [4] and in experiment [5] were 0.125 nM and 0.614 nM, respectively.

The EC50 is the concentration at which the effect is half-maximal. A higher EC50 goes with a need for much substance. In general, Kd refers to the equilibrium constant for the complex coming apart.
